Key:
Assay in all cases: IEDB peptide-MHC binding, purified MHC/competitive/fluorescence; filed as Kd, often an IC50 or EC50 that approximates it; ≥ and ≤ were set here for values at or beyond the usual limits of such assays
Conditions in all cases: source organism: Lyssavirus rabies
[1] = biological target: HLA-A*30:01
[2] = biological target: HLA-A*01:01
[3] = biological target: HLA-A*11:01
[4] = biological target: HLA-B*44:02
[5] = biological target: HLA-B*08:01
[6] = biological target: HLA-A*66:01
[7] = biological target: HLA-B*27:05
[8] = biological target: HLA-B*07:02
[9] = biological target: HLA-B*40:01

Measured: Kd

YLDNVGVHI
≥ 5 µM: all assays above

From the Immune Epitope Database (IEDB)
